Results: patent publication US20250376505A1 (UNIVERSITE DE STRASBOURG, published 2025)

B1: E10P2 (antibody, V domains shown)
VH: EVQLLESGGALVQPGGSLRLSCAASGFTFRSYAMNWVRQAPGKGLEWVSSLSSSGTTTYYADSVKGRFTISRDNSKNTMYLQMDSLRGEDTAVYYCAKDRNAQWLGSEPLDPWGQGTLVTVSS
VL: EIVLTQSPGTLSLSPGERATLSCRASQSVSSSYLAWYQQKPGQAPRLLIYGASSRATGIPDRFSGSGSGTDFTLTISSLQPDDFAIYYCQQAYTFPWTFGQGTKLEIK
B2: B5P4 (antibody, V domains shown)
VH: QVQLVQSGAEVKKPGSSVKVSCKASGGRFSRYGSSWVRQAPGQGLEWMGGIIPLLGTANYAQKFQDRVSITADESTSTVYMHLSSLRSEDTAVYYCATARREYDRPGAEYFIQWGQGTLVTVSS
VL: EIVMTQSPATLSVSPGERATLSCRASQSVSTNLAWYQQKPGQAPRLLIYDAFLRATGIPARFSGSGSGTEFTLTISSLQPEDFAVYYCQQYNYWPPLTFGGGTKVEIK
B3: C9P1 (antibody, V domains shown)
VH: EVQLLESGGGLVQPGGSLRLSCVTSGFTFSSYSMTWVRQAPGKGLEWVSYISSSSRTISYADSVQGRFTISRDNAKNVLYLQMNSLRAEDTAVYYCARQAVAHFDYWGQGTLVTVSS
VL: EIVLTQSPGTLSLSPGERATLSCRASQRVSSNYLAWYQQKPGQAPRLLIYGASSRATGIPDRFSGSGSGTDFTLTISRLEPEDFAVYYCQQYGTSPRSFGQGTKVEIK
B4: D9P6 (antibody, V domains shown)
VH: QLQLQESGPGLVKPSETLSLTCTVSGTYISTNSYYWGWIRQPPGKGLEWIGSIEYGGSTYYNPSLRSRLTISVDTSKNHFSLRLSSVTAADTAMYYCASANSHYYDSGGYCAPSALDIWGQGTMVTVSS
VL: EIVMTQSPATLSVSPGERVTLSCRASQSASSHLAWYQHKRGQAPRLLIYAASSRATGIPARFSGRGSGTEFTLTISSLQSEDFAVYYCQQYNNWPPGYSFGQGTKLEIK
B5: D11P7 (antibody, V domains shown)
VH: EVQLVESGGGLVQPGGSLRLSCAASGFTFRSYTMDWVRQAPGKGLEWVSCISGSSNHKYYADSVRGRFTISRDNAKNSLFLQMNSLRAEDSAVYYCAREDDILTPLYGMDVWGPGTTVTVSS
VL: QSALTQPASVSGSPGQSITISCTGTSSDVGAYNYVSWYRLRPGKDPHLIIYDVSHRPAGVSNRFSGSKSGNTASLTISGLQAEDEDEYYCCSYAHRGTPLFGGGTKLTVL

Assays:
[1] = target: T1, VP1 pentamer of BKV genotype IV (BK virus genotype IV, UniProt P14996 30-300); experiment: ELISA, coated VP1 pentamer
T1 construct: also called VP1 pentamers of genotype IV; GIV; not shown: N-terminal His-tag of pESPRIT002; C-terminal biotin acceptor peptide (BAP) of pESPRIT002

[2] = target: T2, VP1 pentamer of BKV genotype II (BK virus genotype II, UniProt P14996 30-300); experiment: ELISA, coated VP1 pentamer
T2 construct: also called VP1 pentamers of genotype II; GII; not shown: N-terminal His-tag of pESPRIT002; C-terminal biotin acceptor peptide (BAP) of pESPRIT002

[3] = target: VP1 capsid protein on BKV genotype IVc2 pseudovirions (A-66H; AB369093) (BK virus genotype IVc2 (A-66H)); experiment: cell-based or functional assay
[4] = target: VP1 capsid protein on BKV genotype Ia pseudovirions (BK-D; JF894228) (BK virus genotype Ia (BK-D)); experiment: cell-based or functional assay
[5] = target: VP1 capsid protein on BKV genotype II pseudovirions (GBR-12; AB263920) (BK virus genotype II (GBR-12)); experiment: cell-based or functional assay

| Binder | binding result [1] | binding result [2] | EC50 [1] | EC50 [2] | Neutralization PSV IC50 [3] | Neutralization PSV IC50 [4] | Neutralization PSV IC50 [5] |
| --- | --- | --- | --- | --- | --- | --- | --- |
| B1 | no binding (tested: 50 µg/mL (starting concentration)) | no binding (tested: 50 µg/mL (starting concentration)) | – | – | – | – | – |
| B2 | no binding (tested: 50 µg/mL (starting concentration)) | no binding (tested: 50 µg/mL (starting concentration)) | – | – | – | – | – |
| B3 | no binding (tested: 50 µg/mL (starting concentration)) | no binding (tested: 50 µg/mL (starting concentration)) | – | – | – | – | – |
| B4 | – | – | 4 µg/mL | 9 µg/mL | > 50 µg/mL | > 50 µg/mL | > 50 µg/mL |
| B5 | no binding (tested: 50 µg/mL (starting concentration)) | no binding (tested: 50 µg/mL (starting concentration)) | – | – | – | – | – |
